Measurements taken from the DeepSol protein solubility set.

Test: soluble on expression in E. coli; label from the status in PepcDB or PDB records

Row | Sequence | soluble on expression in E. coli
1 | MEYSHLIPEASHAQTSFGLLYMWANDYEYGVFIDDDTLPHEDADFFGTHMSNLAFEGEIETVSSDEQWVNVLYQNEDEHGLYPRGYPYAAMDETVATEATQVNDVVASQGLWTNVPDLDAVRILMDGDLQGQAQTRTSGADFGDDFVAAEGQYLTVCSMNLAFRREVIPAFYQLPMDDNEWDVGRFDDIWSGVFLKRACDVLGKQIYNGDPLCEHNKAPRSTFSDLTNEVHGLELNEHVWEIVDEAGADADSYAEVFDAIATAMADGDFSDWENGAFLNYCGEFMLDWLECLDELDAAATELEHHHHHH | soluble
2 | MQQFHIRRLREEDIPLLKGLLVELDTSHYEAEPNFYRSPEEMAQLREERGVFDKYFDDSMIAFIACSHRQVVGFISGTVRDIDSMVSVAKRVGFVNELVVSESHRNLGIGLSLMDKIESDLCNQGIEEIGLTVASFNHEGEDFYHKMGYRVMTKMMSKRVKDLEHHHHHH | soluble
3 | LQETGAEFKIEVSILKDKATVLIDTTGASLFKRGYRTDKGGAPIKENMAAAILELSNWYPDKPLIDPTCGSGTFCIEAAMIGMNIAPGFNRDFAFEAWNWVGKDLVQSVRDEADSKANYDVALDIMGCDIDSRMVEIAKANAREAGLEDVVKFKQMRLQDLKTDKINGVIISNPPYGERLLDDKAVDILYNEMGQTFAPLKTWSKFILTSDEQFESKYGMKADKKRKLYNGTLRVDLYQYFGERVRRSEARKVN | not soluble
4 | MVYVAVLANIAGNFPALTAALEKIEELKEEGYEIEKYYILGNIVGLFPYPREVIEAIKNLAKTSNVKVIRGKYDQLIAMSDPHAGDPKYIDKLEIPDHLKATLKYTWEKLGHEGREYLRDLPIYLVDKIGKNEIFGVYGSPVNPFDGEILPDQPTSYYEAIMRPVKEYEMLLVASPRYPLDAMTMYGRVVCPGSIGFPPAREHKATFALVDAETLKVKFIEVEYDKKIIEDRIKLEKLPEEVIKILYHGGKA | soluble
5 | MMTVLRSQIESILLVVDQPASVAALARATEAAPETVTSVLRSMAQEFEDRGSGIEVRESPEGWRLYTVKRNADVVEKFLLDGSHTKLSRAALETLAVVAYRQPATRAQVAAVRGVNVDGVMRTLQLRGLIREVAINPGTEGVNGSAHRYETTELFLDLLGIDSLERLPDLAPLLPDIDSIDEYF | not soluble
6 | PDTSHYALLSNRIVNAVKQYRSQRALEASKDRLSLFIDQSPLGFVEYNQDFEIVRVNETLTEIFGYTETELLGETWETFVSSESYDDVDAVTSALSEASGGYHSVNENVRKDGERIVVEWHNRLVTDDS | not soluble
7 | MGSDKIHHHHHHMYPAKHYQTNEENITHYHEIIESNPLATLLFSHESEIDVSHIPCHFSLKTSNTNTQQLERSTLTAHVSNHHPLAKVLQRSSTVALQLVFHGEDAYISPRDVSKQHSHAQSVPTWNYAKVHVSGIAHEVKDSDDKYQYMAASTAYFEQRRSTNNIDKPWSIEEAPAIAIKKMLNAITIFSINITHLEGRFKLSQNKSKAVQKEIAEQLTTRGVEELGQLMLAL | not soluble
8 | MGSDKIHHHHHHMPEPRRSTIDAGEVERFSALAAEWWNPNGKFRPLHKFNPVRLSYIRDQIAARFGRDPRAARPFEGLRILDIGCGGGLLCEPMARLGAEVVGADASETNIEVAKLHAAEGNVIVDYRATTAEDLADAGETFDVILNMEVVEHVADIDLFVAKCGQMVRPGGIMFVATINRTLKALGLAIIGAEYVLRWLPRGTHQFGKLVRPEELEKALGGASLTIIDRTGVTYNPLADRWARSKDMDVNYMVLAEKGSV | not soluble
9 | MTLAEENLRLFEKKFAILQEISNALVVTDNISAIANLMLDLAVNYTRAEKGSLLLLNERDELFILAGRGIDLQLMRTYRARLGEGIAGIVAKGRVPILVKDIDQDSRFQGMTRDRYKTPSFISCPIVSKDRLLGLLNINDKADGTPFLDDEFSLIKIIANQAAIALENAMLVNQLR | not soluble
10 | MAHHHHHHMGLTDLFRRETPQERIRMYKRQLDRTCRDLDRERNKLSTQERKIMMEMKKMAKQDQVDAVRIMARDLVRTRKYNQKMYRMRTQIQGVSLRMQTMQSSAQMADAMKGVTKAMRSMNKKMNIPEIQKIMREFEKQNEMMGMKEDMMNDAVDEVMDDDGMEEEETEQEIQKVMDEAGLEFRTKVGVTDTALPQKSTETQGETDEELDARLAALKASMK | soluble
11 | MTDWLYRYPKLYPGFLLKRYKRFFADVQLTSGEVVTAHCPNTGPMTGVSKIGSPVQLSQSDNPNRKLAYTLELIQVQEQEPTWVGVNTALPNRVIKLALEKFLFPELRDYTQVKGEVIYGKDKKSRVDFYLTGSEKQSPIYLEVKNTTWTQGNLALFPDTETTRGQKHLRELMEVLPHSRAVMLYFINRGDCPEFAPGDSTDPVYGKLLRQAITVGLEVLPCRFDVSPEGIRYLGLAKLKT | not soluble
12 | KLIAATGCPTGIAHTFMAQEALEQAAKEKGVSIKVETHGQVGVENELTPAEIAGAKAVIIAADKDVQAERFAGKRVIEVSVADGIKKADQLIADALAGKGQIK | not soluble
13 | LAMEVGSDSITLTSANTSADAKSVQLFEDFSCSHCSELSLATDADMKTQIEDGNLVVEIKPLNFLDRENIDGHSTHALAAALAVADSNDATLYWNFRAFLMEDQSEIYNQWSDDDFADGVEALGADSSVVDAIRNGDNIQRAYDLATANGEELTEETGSL | not soluble
14 | MALKGEGLQGLLGRGEARLGVGGEEAFQVKGGLLAEPRHGRMGSPVGVQGDLARGVGEGVLPGEHPVEDDPGGVDVSLGARGQAPDELGGQVGGGAQEKGLLETLLGGAREVKVQEAGLPGVHQDVLGLHVPVDQALFVHVGEGEEELVEDPHRLGKRGAFPHPAAELLPRGVGQEEGGAFLQVQGLEDGVEVGVGEPSPHPKLPVPAGAGLRGEELEGVGGAEGVKGQVDPGQGPAGQGPHHPVAAREGFAHQAHRPHYTLRKPGYHGPMRGLVLSGGGARGFAHIGALEVFVEAGLDFEVVAGASMGAIVGALFAAGRSPQEILEIARNTPWLGILGFSFREALFSRGRLRRYLAEHLPQDFADLKRRLVVTAVEVRSGRVVYLFQGDLVSAVLASAAHPLLLRPVRREGLLLFDGGVLDNLPVDAARFLGAEEVWAVDVTPERSVEKPPEGVLGLALRAVDLMQHHLTASRMALYAPEVYLRPELGEVAVQDFLRLEEAVEAGRKAAKRFLESRVGEV | soluble
15 | MSLKWSAIPFQTLYRSIESGEFDFDLFKEVLPDLQNLNLNTDKLKNNASRSQLEKGEIELSDGSTFKVNQEFIFEAISLSDELNLDEIVACELILSGDTTANNGKVQYFLRRQYILQIVSFIVNCFHEDTELYQELIKNGALVSNILSAFKFIHTQLSEIKQQINKAQILENYNALFQQNIKFRRDFLLREYDILSQILYGLVDKGAIMKNKDFILSLLHHVSELDSNDFFIIYYTPAFFHLFASLRVLPDADVKLLHSQFMKDLKDDSIYTKPVKVALIFIFFAYFIGWCKEDPKRRADTMDFKTDVDEPMTSAVELGAIEQILIFAADTSIVEQDKSMELFYDIRSLLERHIPRLIPKQLLDDEKIFSQTTNSTYNPASATDNMSGRGLWNPSYPGMMSTTGTARLNSMPNNVNEYSYTTIVLSDQTQEFFLSSFDDVLQTIITDCAFLLTKIKDAEEDSLLSGEDLTLDDISLKADLERFFLSIYFFYASRPEYSCTFWSDKESNAYGFIEWCSRCNDNLMRSCFYLMVSSLSFGPENALNVYHYFGENSSISWKNIAQCLSDYTKKISNFNSSLHKRQQFSESTHNDIDSTAVALEEGLNEEAVIFLSSLLTLVGSVTYQVDEDVKSSLSKVFSDVLFEFTKINTPLVGAAFKVISNLVPKLESSRTKFWSFLDSLIFKDSSLNYSSESYRNAFTNVLTKYSDVLGFLQLFHNLISIHSREGHHHHHH | not soluble
16 | GPGSMQKQHAPGRGLVLHSHKVKGQQQERNDSLVQCAQHPPLQKRVNPHPHSHSSKPIPNIFVVITGLVVNPRTGSFHDFRSPCFPPPRGGGKGRNAWGNRNGEKVEAALAALQIGIFGDQHHIAGKEACQVDKKPSCSFFLTWPHILPTRFQRKKKRKNY | not soluble
17 | MQRYLWQQADGKRHVYDTARHRVQAGRPFTALCGETVTPQTERGDLTAGLWFDGECPVCTIALAKALGWPVREISDLAHRFDWSPALITRLAEVLHCSFGEVVELTGARMVDA | not soluble
18 | MGHHHHHHSHMMYAQSKGIYYVQLEDDIVAKPNYLSTMKNFALQQPSEDWMILEFSQLGFIGKMFKSLDLSLIVEFILMFYRDKPIDWLLDHILWVKVCNPEKDAKHCDRQKANLRIRFKPSLFQHVGTHSSLAGKIQKLKDKDFGKQALRKEHVNPPAEVSTSLKTYQHFTLEKAYLREDFFWAFTPAAGDFIRFRFFQPLRLERFFFRSGNIEHPEDKLFNTSVEVLPFDNPQSDKEALQEGRTATLRYPRSPDGYLQIGSFYKGVAEGEVDPAFGPLEALRLSIQTDSPVWVILSEIFLKKAD | soluble
19 | MNNLKLDIVEQDDKAIVRVQGDIDAYNSSELKEQLRNFISTTSKKKIVLDLSSVSYMDSAGLGTLVVILKDAKINGKEFILSSLKESISRILKLTHLDKIFKITDTVEEA | soluble
20 | MSLTQYWLGLDCGGSWLKAGLYDREGREAGVQRLPLCALSPQPGWAERDMAELWQCCMAVIRALLTHSGVSGEQIVGIGISAQGKGLFLLDKNDKPLGNAILSSDRRAMEIVRRWQEDGIPEKLYPLTRQTLWTGHPVSLLRWLKEHEPERYAQIGCVMMTHDYLRWCLTGVKGCEESNISESNLYNMSLGEYDPCLTDWLGIAEINHALPPVVGSAEICGEITAQTAALTGLKAGTPVVGGLFDVVSTALCAGIEDEFTLNAVMGTWAVTSGITRGLRDGEAHPYVYGRYVNDGEFIVHEASPTSSGNLEWFTAQWGEISFDEINQAVASLPKAGGDLFFLPFLYGSNAGLEMTSGFYGMQAIHTRAHLLQAIYEGVVFSHMTHLNRMRERFTDVHTLRVTGGPAHSDVWMQMLADVSGLRIELPQVEETGCFGAALAARVGTGVYHNFSEAQRDLRHPVRTLLPDMTAHQLYQKKYQRYQHLIAALQGFHARIKEHTLEGHHHHHH | soluble
21 | GMSTPTPDTDVEQVGLANTAFYEAMERGDFETLSSLWLTPADLGVDEEYHDPADAGVVSCVHPGWPVLSGRGEVLRSYALIMANTEYIQFFLTDVHVSVTGDTALVTCTENILSGGPPPDDSDELGPLVGQLVVATNVFRRTPDGWKLWSHHASPVLAETGAEEGDESPD | soluble
22 | MMLPKEIMMPNDNPYALHRVKVLKVYSLTETEKLFLFRFEDPELAEKWTFKPGQFVQLTIPGVGEVPISICSSPMRKGFFELCIRKAGRVTTVVHRLKPGDTVLVRGPYGNGFPVDEWEGMDLLLIAAGLGTAPLRSVFLYAMDNRWKYGNITFINTARYGKDLLFYKELEAMKDLAEAENVKIIQSVTRDPNWPGLKGRPQQFIVEANTNPKNTAVAICGPPRMYKSVFEALINYGYRPENIFVTLERRMKCGIGKCGHCNVGTSTSWKYICKDGPVFTYFDIVSTPGLLD | not soluble
23 | MAHHHHHHMIGELVLLIGDFHSPMRNLGLPDCFKDLLKTDKIKHVLCTGNVGCRENLELLKNIADSVHITKGDMDDEYDFPEDTSLTIGDFKISLIHGHQIIPWGDTNALLQWQKKYDSDIVISGHTHKNSIVRYEGKYFINPGSATGAFQPWLSQPTPSFILMAVAKSSIVVYVYEEKNGKTNVEMSEL | soluble
24 | EVVVRRLSDPVELEEAVEVHARAWGSRDYREVVAPHILRALVDNGGLVLGAFVGGRMVGASYGWFVGCGEGRYFYSHATGVEEGYKYRGVGFALKARQREEVLREGVSLAKWTFDPLQSLNTRFNLAKLGAVYRVYKVNYYGEMTDEINRGLGSDRVVAEWWL | not soluble
